Laboratory results taken from the supplement of paper PMC10065799, “High-throughput profiling of sequence recognition by tyrosine kinases and SH2 domains using bacterial peptide display” (eLife, 2023).

What was measured:
AncSZ = experiment: phosphorylation enrichment, bacterial display (enrichment ratio); higher = better substrate or ligand; peptides without Tyr show the background
EPHB1 = EPHB1 (UniProt P54762); experiment: as above
EPHB2 = EPHB2 (UniProt P29323); experiment: as above
FGFR1 = FGFR1 (UniProt P11362); experiment: as above
FGFR3 = FGFR3 (UniProt P22607); experiment: as above
Fer (mouse) = experiment: as above
Fes = Fes (UniProt P07332); experiment: as above
Fyn = Fyn (UniProt P06241); experiment: as above
Hck = Hck (UniProt P08631); experiment: as above
Jak2 = Jak2 (UniProt O60674); experiment: as above
MERTK = MERTK (UniProt Q12866); experiment: as above
c-Abl (mouse) = experiment: as above
c-Src = experiment: as above
Grb2 SH2 = Grb2 SH2 (UniProt P62993); experiment: SH2 binding enrichment of the phosphorylated peptide, bacterial display (enrichment ratio); higher = better substrate or ligand; peptides without Tyr show the background
SHP2-C SH2 = experiment: as above
c-Src SH2 = experiment: as above
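For SH2 binding enrichment of the phosphorylated peptide, bacterial display in this document: peptide library displayed on the E. coli surface as eCPX fusions, selected cells deep-sequenced, score is each peptide's frequency after selection divided by its frequency in the input.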
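For phosphorylation enrichment, bacterial display in this document: 11-residue human phosphosite peptides and single-mutation variants displayed on the E. coli surface, counted by deep sequencing, each peptide's frequency after selection divided by its frequency in the unselected input library; frequency after pTyr selection over input frequency; kinase dosed for 20-30% of maximal phosphorylation in three min.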

Sequence of Fes (P07332 whole entry, looked up): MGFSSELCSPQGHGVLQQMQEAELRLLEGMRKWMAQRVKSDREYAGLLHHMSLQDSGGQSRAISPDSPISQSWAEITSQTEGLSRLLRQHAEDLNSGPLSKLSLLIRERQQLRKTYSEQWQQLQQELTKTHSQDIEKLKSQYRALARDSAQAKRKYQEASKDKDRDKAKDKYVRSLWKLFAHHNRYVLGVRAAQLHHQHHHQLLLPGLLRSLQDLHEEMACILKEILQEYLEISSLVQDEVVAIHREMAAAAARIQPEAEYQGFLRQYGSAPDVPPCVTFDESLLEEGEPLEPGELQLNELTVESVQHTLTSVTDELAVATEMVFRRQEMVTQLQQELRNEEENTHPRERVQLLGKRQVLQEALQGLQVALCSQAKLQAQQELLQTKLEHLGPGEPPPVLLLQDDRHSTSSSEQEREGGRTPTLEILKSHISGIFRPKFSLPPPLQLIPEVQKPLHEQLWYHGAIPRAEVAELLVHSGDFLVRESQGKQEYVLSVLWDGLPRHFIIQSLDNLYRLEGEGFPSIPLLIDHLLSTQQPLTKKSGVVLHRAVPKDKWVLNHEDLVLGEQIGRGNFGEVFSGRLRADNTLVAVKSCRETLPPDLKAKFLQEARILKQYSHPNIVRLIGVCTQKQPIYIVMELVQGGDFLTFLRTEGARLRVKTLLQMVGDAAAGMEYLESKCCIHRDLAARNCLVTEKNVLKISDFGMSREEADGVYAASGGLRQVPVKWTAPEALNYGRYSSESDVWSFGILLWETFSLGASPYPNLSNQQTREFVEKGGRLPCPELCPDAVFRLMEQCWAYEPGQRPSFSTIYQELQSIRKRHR
Sequence of FGFR3 (P22607 whole entry, looked up): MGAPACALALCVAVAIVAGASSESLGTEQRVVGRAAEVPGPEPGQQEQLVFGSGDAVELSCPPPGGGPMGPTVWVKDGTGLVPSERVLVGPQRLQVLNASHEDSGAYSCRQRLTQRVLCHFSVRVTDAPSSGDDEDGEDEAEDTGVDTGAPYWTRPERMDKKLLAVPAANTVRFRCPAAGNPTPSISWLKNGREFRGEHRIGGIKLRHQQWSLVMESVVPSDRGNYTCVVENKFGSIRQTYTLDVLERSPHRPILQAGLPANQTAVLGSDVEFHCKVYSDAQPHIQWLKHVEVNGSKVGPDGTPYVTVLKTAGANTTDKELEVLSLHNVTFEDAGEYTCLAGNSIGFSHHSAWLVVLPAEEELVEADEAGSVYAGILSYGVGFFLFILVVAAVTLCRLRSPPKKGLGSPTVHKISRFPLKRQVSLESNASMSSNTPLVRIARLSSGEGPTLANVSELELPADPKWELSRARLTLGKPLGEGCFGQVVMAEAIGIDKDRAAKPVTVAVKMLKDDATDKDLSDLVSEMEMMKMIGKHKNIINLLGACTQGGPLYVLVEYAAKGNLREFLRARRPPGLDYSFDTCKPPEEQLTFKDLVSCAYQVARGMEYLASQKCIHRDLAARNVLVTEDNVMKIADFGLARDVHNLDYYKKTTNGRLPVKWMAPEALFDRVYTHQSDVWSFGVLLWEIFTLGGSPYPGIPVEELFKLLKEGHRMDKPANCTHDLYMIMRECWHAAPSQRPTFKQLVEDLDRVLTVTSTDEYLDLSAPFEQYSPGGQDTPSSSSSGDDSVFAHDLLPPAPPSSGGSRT
Sequence of Hck (P08631 whole entry, looked up): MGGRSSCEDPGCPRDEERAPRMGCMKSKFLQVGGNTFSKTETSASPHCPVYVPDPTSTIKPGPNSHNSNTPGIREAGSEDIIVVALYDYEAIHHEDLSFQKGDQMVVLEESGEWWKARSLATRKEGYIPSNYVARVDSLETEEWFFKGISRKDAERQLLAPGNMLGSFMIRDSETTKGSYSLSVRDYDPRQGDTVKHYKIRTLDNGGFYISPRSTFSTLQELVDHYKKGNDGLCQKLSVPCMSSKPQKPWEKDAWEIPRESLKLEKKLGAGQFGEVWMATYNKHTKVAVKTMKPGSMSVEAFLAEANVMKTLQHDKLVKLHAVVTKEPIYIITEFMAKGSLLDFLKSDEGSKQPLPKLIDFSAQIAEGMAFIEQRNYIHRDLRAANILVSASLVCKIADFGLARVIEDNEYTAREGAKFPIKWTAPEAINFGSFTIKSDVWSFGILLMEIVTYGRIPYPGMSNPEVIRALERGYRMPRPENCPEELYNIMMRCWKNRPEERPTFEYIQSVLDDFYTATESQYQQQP
Sequence of Grb2 SH2 (P62993 whole entry, looked up): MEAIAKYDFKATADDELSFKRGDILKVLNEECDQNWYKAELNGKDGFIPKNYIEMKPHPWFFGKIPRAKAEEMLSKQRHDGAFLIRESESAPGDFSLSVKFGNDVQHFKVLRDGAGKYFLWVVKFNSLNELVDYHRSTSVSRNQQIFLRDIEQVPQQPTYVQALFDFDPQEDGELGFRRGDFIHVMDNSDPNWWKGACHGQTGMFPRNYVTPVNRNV
Sequence of MERTK (Q12866 whole entry, looked up): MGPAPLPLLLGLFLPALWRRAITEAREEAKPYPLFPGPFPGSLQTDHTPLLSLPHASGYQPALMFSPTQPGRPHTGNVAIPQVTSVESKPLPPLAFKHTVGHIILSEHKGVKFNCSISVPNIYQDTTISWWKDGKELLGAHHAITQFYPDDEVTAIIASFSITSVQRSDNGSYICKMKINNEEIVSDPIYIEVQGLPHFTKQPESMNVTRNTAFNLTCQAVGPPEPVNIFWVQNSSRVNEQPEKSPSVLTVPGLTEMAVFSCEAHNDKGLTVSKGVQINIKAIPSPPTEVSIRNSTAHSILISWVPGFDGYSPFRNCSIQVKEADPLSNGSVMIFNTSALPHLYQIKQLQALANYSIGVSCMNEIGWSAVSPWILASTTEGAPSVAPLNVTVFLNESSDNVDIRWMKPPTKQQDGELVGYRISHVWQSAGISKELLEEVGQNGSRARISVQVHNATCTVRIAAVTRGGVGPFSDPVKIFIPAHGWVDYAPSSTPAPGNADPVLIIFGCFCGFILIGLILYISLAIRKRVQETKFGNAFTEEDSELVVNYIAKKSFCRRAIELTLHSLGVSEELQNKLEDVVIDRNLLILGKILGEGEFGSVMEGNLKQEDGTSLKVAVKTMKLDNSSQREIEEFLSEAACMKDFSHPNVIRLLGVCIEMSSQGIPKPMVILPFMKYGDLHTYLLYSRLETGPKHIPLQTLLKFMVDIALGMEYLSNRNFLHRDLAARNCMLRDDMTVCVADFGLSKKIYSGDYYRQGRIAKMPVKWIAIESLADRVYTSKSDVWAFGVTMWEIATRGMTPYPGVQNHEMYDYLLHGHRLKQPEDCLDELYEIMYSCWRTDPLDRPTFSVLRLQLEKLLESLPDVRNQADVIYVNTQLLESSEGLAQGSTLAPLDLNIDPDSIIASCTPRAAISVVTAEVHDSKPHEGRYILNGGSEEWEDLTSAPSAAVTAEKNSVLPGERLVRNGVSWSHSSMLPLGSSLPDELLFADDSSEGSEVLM
Sequence of FGFR1 (P11362 whole entry, looked up): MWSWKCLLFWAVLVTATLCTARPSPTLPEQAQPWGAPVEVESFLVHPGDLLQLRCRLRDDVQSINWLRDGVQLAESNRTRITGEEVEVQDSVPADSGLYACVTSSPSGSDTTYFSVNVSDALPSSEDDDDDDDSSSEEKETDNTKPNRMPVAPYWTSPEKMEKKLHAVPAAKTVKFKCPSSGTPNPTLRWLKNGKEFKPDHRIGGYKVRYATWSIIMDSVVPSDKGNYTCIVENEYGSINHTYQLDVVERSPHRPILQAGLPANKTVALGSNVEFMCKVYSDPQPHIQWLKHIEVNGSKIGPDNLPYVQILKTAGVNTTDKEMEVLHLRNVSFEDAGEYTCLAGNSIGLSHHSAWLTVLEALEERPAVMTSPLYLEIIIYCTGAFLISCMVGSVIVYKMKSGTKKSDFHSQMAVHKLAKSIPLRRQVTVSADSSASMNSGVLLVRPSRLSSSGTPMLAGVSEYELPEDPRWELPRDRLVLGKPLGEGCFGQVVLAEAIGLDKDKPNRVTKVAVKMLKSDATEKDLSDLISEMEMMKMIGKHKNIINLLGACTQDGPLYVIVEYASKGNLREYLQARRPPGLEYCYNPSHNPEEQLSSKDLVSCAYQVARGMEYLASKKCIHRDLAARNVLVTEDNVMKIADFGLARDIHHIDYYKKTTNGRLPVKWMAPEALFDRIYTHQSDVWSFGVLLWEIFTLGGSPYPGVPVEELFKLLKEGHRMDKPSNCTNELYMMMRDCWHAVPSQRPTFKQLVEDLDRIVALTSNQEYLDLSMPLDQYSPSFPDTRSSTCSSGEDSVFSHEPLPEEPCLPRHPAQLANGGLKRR
Sequence of Fyn (P06241 whole entry, looked up): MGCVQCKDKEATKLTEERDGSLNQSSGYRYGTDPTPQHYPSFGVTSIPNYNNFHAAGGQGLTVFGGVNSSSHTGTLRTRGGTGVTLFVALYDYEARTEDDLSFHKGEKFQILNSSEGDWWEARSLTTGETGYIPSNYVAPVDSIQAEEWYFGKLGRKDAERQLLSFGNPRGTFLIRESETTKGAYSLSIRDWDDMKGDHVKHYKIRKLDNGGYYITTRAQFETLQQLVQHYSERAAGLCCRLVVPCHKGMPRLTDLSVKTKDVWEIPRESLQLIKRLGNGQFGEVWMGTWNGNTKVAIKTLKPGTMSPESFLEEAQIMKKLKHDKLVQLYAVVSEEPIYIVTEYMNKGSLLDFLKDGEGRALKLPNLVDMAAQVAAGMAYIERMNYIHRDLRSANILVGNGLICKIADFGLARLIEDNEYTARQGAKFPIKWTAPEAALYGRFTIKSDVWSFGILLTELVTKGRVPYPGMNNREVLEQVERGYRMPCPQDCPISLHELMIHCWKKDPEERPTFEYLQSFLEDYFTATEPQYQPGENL

Sequence | phosphorylation enrichment (AncSZ) | phosphorylation enrichment (EPHB1) | phosphorylation enrichment (EPHB2) | phosphorylation enrichment (FGFR1) | phosphorylation enrichment (FGFR3) | phosphorylation enrichment (Fer (mouse)) | phosphorylation enrichment (Fes) | phosphorylation enrichment (Fyn) | phosphorylation enrichment (Hck) | phosphorylation enrichment (Jak2) | phosphorylation enrichment (MERTK) | phosphorylation enrichment (c-Abl (mouse)) | phosphorylation enrichment (c-Src) | SH2 binding enrichment (Grb2 SH2) | SH2 binding enrichment (SHP2-C SH2) | SH2 binding enrichment (c-Src SH2)
EHTILYSNNST [KANSL1_Y223_T221I] | 0.715 | 0.456 | 0.454 | 0.461 | 0.468 | 0.732 | 0.662 | 0.437 | 0.43 | 0.488 | 0.5 | 0.581 | 0.547 | 0.845 | 0.71 | 0.691
EKAEVYRSENE [RIOK2_Y348_G349R] | 1.09 | 0.51 | 0.738 | 0.507 | 0.724 | 0.466 | 1.08 | 0.448 | 0.499 | 0.863 | 0.44 | 0.77 | 0.509 | 0.94 | 0.653 | 0.502
EKIANYKEGTF [CLRN1_Y171_YF] | 0.967 | 0.53 | 0.474 | 0.461 | 0.537 | 0.408 | 0.823 | 0.465 | 0.4 | 0.724 | 0.498 | 0.543 | 0.5 | 0.91 | 0.554 | 0.443
EKLIQYCQSKG [AKR1B1_Y199] | 0.52 | 0.487 | 0.563 | 0.44 | 0.493 | 0.425 | 0.644 | 0.448 | 0.446 | 0.573 | 0.423 | 0.462 | 0.479 | 0.854 | 0.466 | 0.572
EKMWSYMKSAE [GRIA3_Y705] | 0.939 | 0.511 | 0.4 | 0.411 | 0.75 | 0.398 | 0.949 | 0.802 | 0.365 | 0.719 | 0.381 | 0.547 | 0.467 | 0.972 | 0.86 | 0.394
EKSREYHRLYE [PIK3R1_Y463_D464H] | 0.538 | 0.428 | 0.435 | 0.455 | 0.466 | 0.432 | 0.616 | 0.498 | 0.539 | 0.637 | 0.525 | 0.52 | 0.519 | 0.647 | 0.589 | 6.12
ELPQTYCVSGP [DYSF_Y1684_G1679E] | 0.791 | 0.533 | 0.532 | 0.417 | 0.594 | 0.515 | 0.816 | 0.469 | 0.435 | 0.826 | 0.447 | 0.633 | 0.641 | 0.838 | 0.881 | 0.47
ENAGFYFRISA | 1.32 | 0.587 | 0.73 | 0.467 | 0.844 | 0.674 | 1.42 | 0.44 | 0.492 | 1.55 | 0.36 | 1 | 0.492 | 0.729 | 0.566 | 0.669
ENAGYYFRVSA | 1.26 | 0.568 | 0.665 | 0.508 | 0.719 | 0.456 | 1.26 | 0.435 | 0.476 | 1.21 | 0.347 | 0.775 | 0.322 | 0.788 | 0.976 | 0.415
ENELTYFCFKK [CD59_Y86_C89Y_YF] | 1.71 | 0.796 | 0.667 | 1.06 | 1.29 | 0.541 | 1.57 | 4.33 | 3.63 | 2.43 | 1.16 | 3.38 | 4.58 | 0.746 | 0.6 | 0.414
ENRKFYMDLKE [PURA_Y156_YF] | 0.917 | 0.492 | 0.691 | 0.503 | 0.738 | 0.487 | 0.989 | 0.408 | 0.469 | 0.963 | 0.432 | 0.557 | 0.375 | 0.841 | 0.558 | 0.506
EPSLVYMVTKI [CPS1_Y768_D767V] | 1.16 | 0.575 | 0.534 | 0.543 | 0.741 | 1.7 | 1.16 | 0.808 | 1.26 | 1.04 | 0.454 | 0.89 | 1.45 | 0.769 | 0.531 | 0.482
EQLQSYQVEII [KRT33A_Y268_A270V] | 1.14 | 0.67 | 0.529 | 0.531 | 0.762 | 0.597 | 1.21 | 0.579 | 0.53 | 0.945 | 0.513 | 0.858 | 0.575 | 0.832 | 0.629 | 0.457
EQSGSYIWVPA [DLG1_Y895] | 1.86 | 0.892 | 0.615 | 8.59 | 5.15 | 0.514 | 1.16 | 0.471 | 0.487 | 1.19 | 3.33 | 0.807 | 0.511 | 0.925 | 0.604 | 0.682
EQWRAYLEGTC [HLA-C_Y183_L180W] | 1.2 | 0.648 | 0.588 | 0.65 | 0.951 | 0.636 | 1.23 | 0.527 | 0.507 | 1.17 | 0.437 | 0.845 | 0.398 | 0.749 | 0.718 | 0.466
ERCAQYKKDGA [ALDOA_Y138] | 0.612 | 0.409 | 0.487 | 0.438 | 0.484 | 0.341 | 0.574 | 0.394 | 0.396 | 0.622 | 0.368 | 0.496 | 0.391 | 1.06 | 0.623 | 0.635
ERKQTYGSCRK [LACTB_Y473] | 0.518 | 0.343 | 0.406 | 0.365 | 0.381 | 0.319 | 0.636 | 0.339 | 0.403 | 0.392 | 0.359 | 0.5 | 0.334 | 1.09 | 1.27 | 0.971

Sequence | phosphorylation enrichment (AncSZ) | phosphorylation enrichment (EPHB1) | phosphorylation enrichment (EPHB2) | phosphorylation enrichment (FGFR1) | phosphorylation enrichment (FGFR3) | phosphorylation enrichment (Fer (mouse)) | phosphorylation enrichment (Fes) | phosphorylation enrichment (Fyn) | phosphorylation enrichment (Hck) | phosphorylation enrichment (Jak2) | phosphorylation enrichment (MERTK) | phosphorylation enrichment (c-Abl (mouse)) | phosphorylation enrichment (c-Src) | SH2 binding enrichment (Grb2 SH2) | SH2 binding enrichment (SHP2-C SH2) | SH2 binding enrichment (c-Src SH2)
ESMLRYEVYGG [STOX1_Y607] | 1.29 | 0.758 | 0.685 | 0.528 | 0.702 | 0.523 | 1.42 | 0.666 | 0.712 | 1.3 | 0.506 | 0.744 | 0.905 | 0.819 | 0.554 | 0.929
ESSKAYERDLS [TTC37_Y1074_A1077D] | 0.735 | 0.394 | 0.488 | 0.384 | 0.524 | 0.519 | 0.771 | 0.419 | 0.456 | 0.499 | 0.432 | 0.533 | 0.402 | 0.681 | 0.715 | 0.471
ETGEPCRLSPE [EIF4G1_Y311_Y311C] | 1.13 | 0.62 | 0.674 | 0.612 | 0.846 | 0.55 | 1.31 | 0.531 | 0.689 | 1.15 | 0.536 | 1.01 | 0.553 | 0.866 | 0.618 | 0.664
EVTLTYATGIK [NFKB1_Y485_T489I] | 0.896 | 0.475 | 0.424 | 0.421 | 0.634 | 0.473 | 1.15 | 0.477 | 0.555 | 1.06 | 0.404 | 0.66 | 0.508 | 0.916 | 0.646 | 0.413
EVTLTYATGTK [NFKB1_Y485] | 0.805 | 0.526 | 0.526 | 0.404 | 0.643 | 0.425 | 1.11 | 0.496 | 0.514 | 0.75 | 0.371 | 0.774 | 0.409 | 0.701 | 0.528 | 0.418
EWLRGYLENGK [HLA-C_Y195_R194G] | 0.844 | 0.51 | 0.683 | 0.481 | 0.601 | 0.436 | 0.921 | 0.464 | 0.483 | 0.777 | 0.394 | 0.97 | 0.481 | 0.871 | 1.06 | 0.43
EWQQIYTYDSG [JUP_Y20_T19I] | 1.6 | 1.69 | 0.971 | 6.84 | 5.58 | 4.55 | 1.18 | 8.85 | 6.09 | 1 | 7.85 | 0.75 | 6.89 | 0.885 | 0.734 | 0.968
EWQQTYTYDSG [JUP_Y20] | 1.12 | 0.554 | 0.585 | 1.17 | 0.99 | 0.513 | 1.02 | 1.28 | 0.783 | 0.898 | 0.817 | 0.657 | 3.88 | 0.813 | 0.775 | 1.01
EYLHKYKGFKI [SYNE1_Y6953_Q6951H] | 0.903 | 0.509 | 0.509 | 0.403 | 0.57 | 0.405 | 1.01 | 0.461 | 0.437 | 1.01 | 0.453 | 0.996 | 0.501 | 0.861 | 0.63 | 0.527
FADIAYNFRHG [PAH_Y166_YF] | 0.67 | 0.522 | 0.514 | 0.581 | 0.512 | 0.396 | 0.713 | 0.558 | 0.506 | 0.734 | 0.428 | 0.578 | 0.532 | 0.878 | 0.78 | 0.516
FADIAYNFRRG [PAH_Y166_H170R_YF] | 0.966 | 0.637 | 0.411 | 0.43 | 0.539 | 0.39 | 0.649 | 0.409 | 0.429 | 0.602 | 0.396 | 0.462 | 0.45 | 0.799 | 0.822 | 0.541
FADTAYNFRHG [PAH_Y166_I164T_YF] | 0.599 | 0.363 | 0.386 | 0.342 | 0.39 | 0.317 | 0.62 | 0.369 | 0.379 | 0.45 | 0.305 | 0.544 | 0.415 | 0.881 | 0.562 | 0.45
FAELVYTSFWH [ASS1_Y322_G324S] | 2.31 | 2.99 | 3.44 | 5.31 | 4.28 | 8.86 | 1.89 | 8.65 | 7.37 | 2.11 | 7.38 | 14 | 6.82 | 0.907 | 0.612 | 0.624
FAKSVYWDNTL [NUP107_Y296_E298D_YF] | 1 | 0.719 | 0.772 | 0.525 | 0.688 | 0.463 | 1.04 | 0.679 | 0.578 | 1.02 | 0.725 | 0.656 | 0.76 | 0.781 | 0.694 | 0.691
FASALYRQRRS [FGF11_Y162_YF] | 0.689 | 0.513 | 0.622 | 0.668 | 0.531 | 0.991 | 0.592 | 0.577 | 0.546 | 0.468 | 0.565 | 0.563 | 0.577 | 0.79 | 0.576 | 0.516
FCRHNYGVVES [HLA-DRB1_Y112_YF] | 0.569 | 1.32 | 2.62 | 0.587 | 0.661 | 0.555 | 0.843 | 0.503 | 0.526 | 0.632 | 0.44 | 0.545 | 0.446 | 1.19 | 1.05 | 1.86
